Data published in US20130330346A1 (Novartis, published 2013).
One block for each binder: values may come before it. Ends that are not written are not given here.

Assays:
Human CXCR2 [1] = molecular target: T1, Human CXCR2 (human, UniProt P25025 1-360); test: cell-based or functional assay
T1 sequence: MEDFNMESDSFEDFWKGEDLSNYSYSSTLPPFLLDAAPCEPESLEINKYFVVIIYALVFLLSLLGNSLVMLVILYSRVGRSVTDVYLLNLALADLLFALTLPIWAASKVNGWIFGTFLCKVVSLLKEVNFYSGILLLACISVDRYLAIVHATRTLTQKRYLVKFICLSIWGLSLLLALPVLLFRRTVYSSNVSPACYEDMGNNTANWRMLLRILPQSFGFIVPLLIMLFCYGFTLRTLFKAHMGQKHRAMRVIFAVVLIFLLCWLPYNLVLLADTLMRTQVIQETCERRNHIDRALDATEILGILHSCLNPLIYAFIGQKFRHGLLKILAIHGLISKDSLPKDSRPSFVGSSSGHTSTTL

Cynomolgus CXCR2 [2] = molecular target: T2, Cynomolgus CXCR2 (cynomolgus, UniProt Q28519 3-353 (rhesus entry)); test: cell-based or functional assay
T2 chain: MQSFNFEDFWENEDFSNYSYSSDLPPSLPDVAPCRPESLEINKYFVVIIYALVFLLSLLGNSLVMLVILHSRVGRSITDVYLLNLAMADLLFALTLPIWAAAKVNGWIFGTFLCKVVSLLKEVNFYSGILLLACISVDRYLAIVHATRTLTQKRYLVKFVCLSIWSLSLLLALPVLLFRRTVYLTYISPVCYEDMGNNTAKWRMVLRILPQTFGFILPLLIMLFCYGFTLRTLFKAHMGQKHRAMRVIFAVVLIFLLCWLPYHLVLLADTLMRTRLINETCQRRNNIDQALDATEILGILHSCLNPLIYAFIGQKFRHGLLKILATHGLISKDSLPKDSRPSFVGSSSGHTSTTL

Human CXCR2 [3] = molecular target: T1, Human CXCR2; test: cell-based or functional assay; remark: listed apart in the source
Cynomolgus CXCR2 [4] = molecular target: T2, Cynomolgus CXCR2; test: cell-based or functional assay
Human CXCR2 [5] = molecular target: T1, Human CXCR2; test: cell-based or functional assay; remark: listed apart in the source
Human CXCR2 [6] = molecular target: T1, Human CXCR2; test: cell-based or functional assay; remark: listed apart in the source
Cynomolgus CXCR2 [7] = molecular target: T2, Cynomolgus CXCR2; test: cell-based or functional assay
Human CXCR2 [8] = molecular target: T1, Human CXCR2; test: FACS hGro-α competition
Cynomolgus CXCR2 [9] = molecular target: T2, Cynomolgus CXCR2; test: FACS hGro-α competition
Human 1to19 peptide [10] = molecular target: T3, Human 1to19 peptide (human); test: peptide ELISA of Table 8 (ratio 0.6)
T3 construct: First 19 N-terminal amino acids of human CXCR2, captured on neutravidin; also called human CXCR2 1 to19 peptide; 1-19 Nter peptide
T3 peptide: MEDFNMESDSFEDFWKGED-biotin

Human CXCR2 [11] = molecular target: T1, Human CXCR2; test: FACS competition vs 3 nM FMAT-Blue Gro-α
Experimental: (§1) Purified monovalent anti-CXCR2Nanobodies were titrated against 3 nM FMAT-Blue-labeled Gro-α in the FACS ligand competition assay on human and cynomolgus CXCR2 (Table 10). On human CXCR2, blocking potencies range between double digit nM and sub-nM whereas on cynomolgus CXCR2, they range between single and double digit nM.

Cynomolgus CXCR2 [12] = molecular target: T2, Cynomolgus CXCR2; test: FACS competition vs 3 nM FMAT-Blue Gro-α
Experimental: as §1

Human CXCR2 [13] = molecular target: T1, Human CXCR2; test: FACS, periplasmic extract vs FMAT Blue Gro-α
Method in brief: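 Cells (2×10⁵) preincubated 30 min at 4 °C with ½-diluted periplasmic extracts in PBS/10% FBS. An equal volume of 6 nM FMAT Blue-labelled human Gro-α was then added for another 30 min at 4 °C in the dark. After washing, dead cells were excluded with propidium iodide and binding read by flow cytometry.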

Human 1to19 peptide [14] = molecular target: T3, Human 1to19 peptide; test: ELISA, periplasmic extract on biotinylated peptide
Method in brief: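 Neutravidin-coated, casein-blocked plates captured 100 nM biotinylated human 1–19 peptide; 10-fold dilutions of periplasmic Nanobody extracts bound 1 h. Detection via mouse anti-myc then anti-mouse-HRP; value is ratio of binding signal over an irrelevant control Nanobody.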

Human CXCR2 [15] = molecular target: T1, Human CXCR2; test: immunoluminescence, HEK-293T with wild type receptor, 2.0 ug/ml, anti-myc detection

FLIPR % inhibition max (Human CXCR2 [1]): 100%
FLIPR IC50 (GRO-α induced calcium release) (Human CXCR2 [1]): 44.3 nM
[35S]GTPγS % inhibition max (GRO-α) (Human CXCR2 [1]): 100%
[35S]GTPγS IC50 (GRO-α) (Human CXCR2 [1]): 64.7 nM
FLIPR % inhibition max (Cynomolgus CXCR2 [2]): 100%
FLIPR IC50 (GRO-α induced calcium release) (Cynomolgus CXCR2 [2]): 158 nM
Human Chemotaxis IC50 (GROα) (Human CXCR2 [3]): 9.3 nM
Human WBSC IC50 (rhGROα) (Human CXCR2 [3]): 9.4 nM
Cynomologus WBSC IC50 (rhGROα) (Cynomolgus CXCR2 [4]): > 100 nM
IC50 (M) at 5 nM GROα (inhibition of GRO-α, FIG. 2) (Human CXCR2 [5]): 3.03e-08 M
IC50 (M) at 15 nM GROα (inhibition of GRO-α, FIG. 2) (Human CXCR2 [5]): 4.04e-08 M
IC50 (M) at 45 nM GROα (inhibition of GRO-α, FIG. 2) (Human CXCR2 [5]): 7.54e-08 M
IC50 (M) at 150 nM GROα (inhibition of GRO-α, FIG. 2) (Human CXCR2 [5]): 1.87e-07 M
FLIPR hGro-α IC50 (Human CXCR2 [6]): 35 nM
FLIPR hGro-α IC50 (Cynomolgus CXCR2 [7]): 150 nM
IC50 (Human CXCR2 [8]): 10 nM
IC50 (Cynomolgus CXCR2 [9]): 22 nM
binding result (Human 1to19 peptide [10]): no binding
% inhibition of max (Human CXCR2 [11]): 92.4%
IC50 (Human CXCR2 [11]): 8.96 nM
% inhibition of max (Cynomolgus CXCR2 [12]): 83.5%
IC50 (Cynomolgus CXCR2 [12]): 14.8 nM
FACS Gro-α competition (% inhibition) (Human CXCR2 [13]): 80.1%
ratio of binding signal relative to blank control (Human 1to19 peptide [14]): 0.6 ratio
B1: 163E3 (VHH)
VHH: EVQLVESGGGLVQPGGSLRLSCVASGRIFSSNAMGWFRQAPGKEREFVAAITWRSGGSAYYADSAKGRFTISRDNAKNTVYLQMNSLKPEDTAVYYCAAGGSSWLSFPPDYWGQGTQVTVSS
notes: Tested as periplasmic extract (pAX50) and as purified His6-tagged protein (pAX100); also called 163E03; not shown: C-terminal c-myc tag and His6 tag coded by the vector

FLIPR hGro-α IC50 (Human CXCR2 [6]): 31 nM
FLIPR hGro-α IC50 (Cynomolgus CXCR2 [7]): 100 nM
IC50 (Human CXCR2 [8]): 16 nM
IC50 (Cynomolgus CXCR2 [9]): 25 nM
Signal:Background (Human CXCR2 [15]): 20 ratio
B2: CXCR20076 (VHH)
VHH: EVQLLESGGGLVQPGGSLRLSCAASGRIFSSNAMGWFRQAPGKEREFVAAITWRSGGSAYYADSVKGRFTISRDNSKNTVYLQMNSLRPEDTAVYYCAAGGSSWLSFPPDYWGQGTLVTVSS
notes: also called RD-HBC794; MAb 794
